This note sets out measurements from US7709002.

In experiment [1] the target is MHC class I (HLA class I) molecules. In words: flow cytometry, HT29 cells, W6/32. A general note: Flow cytometry measures light scatter and fluorescence of single cells or particles in a stream.
For experiment [2] the target is unchanged. In words: flow cytometry, SW480 cells, W6/32.
Experiment [3] shares this target. In words: flow cytometry, Calu-1 cells, W6/32.
Experiment [4] has the same target. Briefly: T2 bioassay, no peptide (b2m 3 µg/ml only), flow cytometry, staining of T2 cells with pan class I MAb W6/32; baseline.
In experiment [5] the target is ras p21 proteins of the HT-29 colon carcinoma cell line (no known ras codon 12 point mutation) (human) (UniProt P01116). Briefly: sandwich ELISA, RAS 10 capture of HT29 lysate, rat anti-mouse B7.1 in place of the detection MAb. A general note: An ELISA detects its analyte on a solid surface through an enzyme-linked reagent.
Experiment [6] has as its target ras p21 proteins of the SW480 colon carcinoma cell line (K-ras Val12 mutation) (human) (UniProt P01116). Briefly: sandwich ELISA, RAS 10 capture of SW480 lysate, rat anti-mouse B7.1 in place of the detection MAb.
The target in experiment [7] is ras p21 proteins of the Calu-1 lung carcinoma cell line (K-ras Cys12 mutation) (human) (UniProt P01116). Briefly: sandwich ELISA, RAS 10 capture of Calu-1 lysate, rat anti-mouse B7.1 in place of the detection MAb.
In experiment [8] the target is ras p21 proteins of the HT-29 colon carcinoma cell line (no known ras codon 12 point mutation) (human) (UniProt P01116). In words: sandwich ELISA, RAS 10 capture, Y13-238 detection, HT29 lysate 75 µg protein.
Experiment [9] has the same target. Briefly: sandwich ELISA, RAS 10 capture, Y13-238 detection, HT29 lysate 7.5 µg protein.
The target of experiment [10] is ras p21 proteins of the SW480 colon carcinoma cell line (K-ras Val12 mutation) (human) (UniProt P01116). Briefly: sandwich ELISA, RAS 10 capture, Y13-238 detection, SW480 lysate 75 µg protein.
The target in experiment [11] is ras p21 proteins of the Calu-1 lung carcinoma cell line (K-ras Cys12 mutation) (human) (UniProt P01116). Briefly: sandwich ELISA, RAS 10 capture, Y13-238 detection, Calu-1 lysate 75 µg protein.
Experiment [12] concerns the target ras p21 proteins of the SW480 colon carcinoma cell line (K-ras Val12 mutation) (human) (UniProt P01116). Briefly: sandwich ELISA, RAS 10 capture, Y13-238 detection, SW480 lysate 7.5 µg protein.
Experiment [13] has as its target ras p21 proteins of the Calu-1 lung carcinoma cell line (K-ras Cys12 mutation) (human) (UniProt P01116). In words: sandwich ELISA, RAS 10 capture, Y13-238 detection, Calu-1 lysate 7.5 µg protein.
Experiment [14] shares this target. In words: cell-based or functional assay.
The target of experiment [15] is ras p21 proteins of the HT-29 colon carcinoma cell line (no known ras codon 12 point mutation) (human) (UniProt P01116). In words: flow cytometry, fixed permeabilised HT29 cells, RAS 10 at 1 µg/ml.
Experiment [16] shares this target. Briefly: flow cytometry, fixed permeabilised HT29 cells, RAS 10 at 3 µg/ml.
Experiment [17] has the same target. Briefly: flow cytometry, fixed permeabilised HT29 cells, RAS 10 at 10 µg/ml.
Experiment [18] concerns the target ras p21 proteins of the SW480 colon carcinoma cell line (K-ras Val12 mutation) (human) (UniProt P01116). Briefly: flow cytometry, fixed permeabilised SW480 cells, RAS 10 at 1 µg/ml.
For experiment [19] the target is unchanged. Briefly: flow cytometry, fixed permeabilised SW480 cells, RAS 10 at 3 µg/ml.
In experiment [20] the target is ras p21 proteins of the Calu-1 lung carcinoma cell line (K-ras Cys12 mutation) (human) (UniProt P01116). In words: flow cytometry, fixed permeabilised Calu-1 cells, RAS 10 at 1 µg/ml.
The target is the same in experiment [21]. In words: flow cytometry, fixed permeabilised Calu-1 cells, RAS 10 at 3 µg/ml.
The target in experiment [22] is ras p21 proteins of the SW480 colon carcinoma cell line (K-ras Val12 mutation) (human) (UniProt P01116). Briefly: flow cytometry, fixed permeabilised SW480 cells, RAS 10 at 10 µg/ml.
Experiment [23] deals with ras p21 proteins of the Calu-1 lung carcinoma cell line (K-ras Cys12 mutation) (human) (UniProt P01116). In words: flow cytometry, fixed permeabilised Calu-1 cells, RAS 10 at 10 µg/ml.
In experiment [24] the target is HLA-A2 (human). Briefly: T2 bioassay (peptide 50 µg/ml + b2m 3 µg/ml, overnight), flow cytometry, stained with anti-HLA-A2 MAb.
The target of experiment [25] is HLA-A2 (human). In words: T2 bioassay (peptide 50 µg/ml + b2m 3 µg/ml, overnight), flow cytometry, stained with pan class I MAb W6/32.
Experiment [26] has as its target ras p21 proteins of the HT-29 colon carcinoma cell line (no known ras codon 12 point mutation) (human) (UniProt P01116). In words: flow cytometry, fixed permeabilised HT29 cells, isotype-matched control UPC-10.
Experiment [27] concerns the target ras p21 proteins of the SW480 colon carcinoma cell line (K-ras Val12 mutation) (human) (UniProt P01116). Briefly: flow cytometry, fixed permeabilised SW480 cells, isotype-matched control UPC-10.
Experiment [28] concerns the target ras p21 proteins of the Calu-1 lung carcinoma cell line (K-ras Cys12 mutation) (human) (UniProt P01116). In words: flow cytometry, fixed permeabilised Calu-1 cells, isotype-matched control UPC-10.
Experiment [29] deals with HLA-A2 (human). In words: T2 bioassay, isotype-matched control MAb staining of T2 cells incubated with CEA571-579.
Experiment [30] has as its target HLA-A2 (human). Briefly: T2 bioassay, isotype-matched control MAb staining of T2 cells incubated with ras5-12(V12).
For experiment [31], the target named is HLA-A2 (human). In words: T2 bioassay, isotype-matched control MAb staining of T2 cells incubated with ras5-13(V12).
For experiment [32], the target named is HLA-A2 (human). In words: T2 bioassay, isotype-matched control MAb staining of T2 cells incubated with ras5-14(C12).
Experiment [33] has as its target HLA-A2 (human). Briefly: T2 bioassay, isotype-matched control MAb staining of T2 cells incubated with ras5-14(D12).
The target of experiment [34] is HLA-A2 (human). Briefly: T2 bioassay, isotype-matched control MAb staining of T2 cells incubated with ras5-14(G12).
The target in experiment [35] is HLA-A2 (human). In words: T2 bioassay, isotype-matched control MAb staining of T2 cells incubated with ras5-14(V12).
Experiment [36] concerns the target HLA-A2 (human). In words: T2 bioassay, isotype-matched control MAb staining of T2 cells incubated with ras5-17(D12).
For experiment [37], the target named is HLA-A2 (human). In words: T2 bioassay, isotype-matched control MAb staining of T2 cells incubated with ras8-16(V12).
Experiment [38] concerns the target HLA-A2 (human). In words: T2 bioassay, no peptide, flow cytometry, isotype-matched control MAb staining of T2 cells.

As for pan HLA class I MAb W6/32 (antibody), the MFI in experiment [1] amounted to 1310; in [2], 1180; in [3] it was 1620; in experiment [4] it was 230. The Percent Positive Cells in experiment [1] is 93.5%; in [2] it was 84.2%; in experiment [3], 93.4%.

On to “rat IgG2a anti-mouse B7.1 MAb (antibody)”, for which the results for the Immunoreactivity (A490) in [5], in [6] and in experiment [7] were 0.283 A490, 0.333 A490 and 0.299 A490, respectively.

With ras MAb, clone Y13-238 (antibody), the Immunoreactivity (A490) in experiment [8] worked out at 1.49 A490; in experiment [9], 0.99 A490; in [10], 1.59 A490; in experiment [11], 1.5 A490; in experiment [12] it was 1.5 A490; in [13], 1.29 A490.

With isotype-matched (IgG2a) MAb UPC-10, the Proliferation Response (3H-thymidine uptake, cpm) of the CD4+ T cell line of patient 43 to Calu-1 extract (250 µg protein) on wells coated with isotype-matched MAb UPC-10, with BLCL in [14] worked out at 7320 cpm.

Take pan-ras MAb, clone RAS 10 (antibody): the MFI in experiment [15] was 233; in [16] it was 304; in experiment [17], 423; in experiment [18] it was 273; in experiment [19], 386; in experiment [20], 176. The MFI in experiment [21] is 225; in experiment [22], 631; in [23], 332. Besides, the Percent Positive Cells is 58.6% in experiment [15]; 83.4% in experiment [16]; 93.1% in [17]; 67% in experiment [18]; 82.8% in experiment [19]; 59.8% in experiment [20]. The Percent Positive Cells in experiment [21] stood at 87.8%; in [22], 83.4%; in experiment [23] it was 90.6%.

In the case of pan-ras MAb, clone RAS 10, the Proliferation Response (3H-thymidine uptake, cpm) of the CD4+ T cell line of patient 43 to Calu-1 extract (250 µg protein) on wells coated with RAS 10, with BLCL in [14] is 80500 cpm.

Regarding “CEA571-579 peptide (from UniProt P06731 571-579)”, the values for the MFI with HLA-A2 (human) [24] and with HLA-A2 (human) [25] were 680 and 991, respectively.

For the substance “isotype-matched (IgG2a) MAb UPC-10 (antibody)”, the values for the Percent Positive Cells in experiment [26], in experiment [27] and in experiment [28] were 11.6%, 5.3% and 1%, respectively. The MFI was determined as 48.4 in the experiment with HLA-A2 (human) [29]; 44.2 with HLA-A2 (human) [30]; 54.1 with HLA-A2 (human) [31]; 61.4 in the experiment with HLA-A2 (human) [32]; 50.8 with HLA-A2 (human) [33]; 41.3 with HLA-A2 (human) [34]. Besides, the MFI with HLA-A2 (human) [35] came out at 38.1; in the experiment with HLA-A2 (human) [36] it was 46.5; in the experiment with HLA-A2 (human) [37], 39.6; with HLA-A2 (human) [38], 84.
